{"source": "a protein production outcome set (Wang et al. 2014)", "test": "label from the status in PepcDB records"}
{"sequence": "MKESSTLLQNLARSLPRLNMGILLGLALLLFATLYWTLERLFDEQNSNVRLHFAQLMENIQEQELFLKRLAARHSIDALSLDAPHHLNLQAFPPTAGQQSPFATPFSLSLSPQQPAAGELPRVFALGLQLSSFYSAFWSGSQHVAPRTFVFKTFGHFDISHPEGNTAPDIGVADQVLHQQLVKSDGFADHQIHWQQYRPPASEALPTRFLAYINLHEPAPPLDVQGGNDWSVVASLLSLDDLNHLEHTRHWSIYDDFTLIEPSGTALTGDPAPADVLGEGLNFGLQGMIVKVTSQTPQLWTGLYAISYRNYLDYALWAMLSLLALGVGSIACGWAASRWYRNKVVVPAQRAQQCLNESEDFNRVVIDTVPSGLCVVSRDNLQVILQNRQAEQWQGTAQLLSRLAQDRSLIDGGETSLDIDGRYLQVEFVSTRYQRQDVLVCTFNDVTRHVEDARALDRARRSADAANAAKTLFLATMSHEIRTPLYGVLGTLELLGLTRLDSRQSDYLQTIQRSSSTLFQLISDVLDVSRIEAGQMSIDPLEFCPLDMLEDVLHAHAASAQRRGLLFYACIDPNLPDLLLGDAARISQILNNLLSNAIKFTESGRVVLRVRLLELRDQQARIEWQVTDTGIGISAQQQPQLFVPFFQVRDASNEAGAGLGLAICERLCQMMGGQMQVTSEPGLGSSFSLRLTLRCLPGGLPPLLPWPEGSPVYVRAPVPELLKNTCDWLGRLGVPAHPPPPGWSDEPQTGVLIDMLPRDGLASWPGPCVSAVSGGGSGRLPQATSWQVDAHDIRAIAQAAVLAHQGLPLYQAQHRAGRMGQLNLRILVAKHSPINQAIIKEQLQALGCQVTLSANGKQALEHWQPQRFDIVITDVNMPLMNGYELARELRRRDPQLPIIGVTANALREEGIRCLAAGMNTWIVKPMNLQTLRGHLSKLCPTSTATAAPSIPPAAPSRPPPDTAQGDRIQVTEKMRPLFLSTMHEDLRRLAEALDSGAGKIAAARLHSIAGAMGAVQAAPLAKACAELECRLLEGALTADLQAQARQLMQRLSRLLLPLE", "values": [{"measurement": "protein production", "result": "failed"}]}
{"sequence": "MRFSYIEPRAKYLISKLSKIWVFYIFLSFVVIGGLVWFMHNAIKSTQDNASSLTIQERLYRHEISRLQVKTDETLKLIKEAKKRLNYNDDIRDVLQGLLNIVPDSITINSIEIDQQSVVVSGKTPSKEAFYFLFQNKLNPMFDYSRAEFFPLSDGWFNFVSTNFSNSLLIKNPESIK", "values": [{"measurement": "protein production", "result": "failed"}]}
{"sequence": "MCQMPCQFSWPYTHYFTQTKNKEKILNKLIVFTGGPGAGKTSVIEQLKTQGFICAPETGRHVIQMQVANHGSALPWNDKQAFRDEMTKEEVSNYRSFNVRQGDVFFDRSIVDVYGYSKLEQLPISHELITHCQTLRYHSQVFIFPPWASIFSNDEERKQDFSEAVATYQQMVDAYHKFGYQLIEVPKMSVEDRVAFILGSVIELEHHHHHH", "values": [{"measurement": "protein production", "result": "not failed"}]}
{"sequence": "MFERFDSDRSRYASLGVVSSLPSGLIDSIWLIIDLNLKGVIPLNDLLHFDLLNNNGKVTVHFSQENSSVEMAIDLPFSYSTAYPSRIFAFDDGHRETILLPAEMLES", "values": [{"measurement": "protein production", "result": "not failed"}]}
{"sequence": "MGEDRRSLRVDYDDNFLRNNICSLKVSFIKQQGGAEGVKRLYADLGLALVALIWGSTFPVVKIALDSMSPFAFNTVRFFIACLFFLPFLKGWDFKDGFKIGIASFLGYTFQTVGLDYTTATNAGFITSTYVVLAPIISWLVYKDVFDKRDVSGVLLAFVGFYFLSGYSGFNIGDILMLFCALFFGAEIAMISHYSRLSNPTMLAFWQSFAIFILSAPFAVFTTTKFEINTTVILCLLITAFFATFVAKMLQNWLQSYTKSSDAAVILSLEGVFAHLFSVAVLAEILTPVQYFGAFLILLAVIIVSLRV", "values": [{"measurement": "protein production", "result": "failed"}]}
{"sequence": "MKCIPYSVLLKDLEMRNLRELEDLIIEAVYTDIIQGKLDQRNQLLEVDFCIGRDIRKKDINNIVKTLHEWCDGCEAVLLGIEQQVLRANQYKENHNRTQQQVEAEVTNIKKTLKATASSSAQEMEQQLAERECPPHAEQRQPTKKMSKVKGLVSSRH", "values": [{"measurement": "protein production", "result": "not failed"}]}
{"sequence": "MTVPWHLVALAFAVCLVVAAPGFLRVYYFVSLCYAGAIAAQSLVFALLFSTTISGWVTLQLLLLLIYGVRLGAFLAVRERNPAYAAELARAERRTAELKLWHQIAIWLGVSLLFTLLFLPALLTLSLQAQGAWPVSTPLGVMIMAVGLWVESLADWQKYRYKAEHPSHYCDTGLYRLVRCPNYLGEMVFWFGVWFSGLSAYGSGGAWTLTLLGMLYILALMTAAAAGLERKQDERYGDRPDYQEYVRSVPILFPWVPLFTLRKLLIRFR", "values": [{"measurement": "protein production", "result": "failed"}]}
{"sequence": "MWSFIQKIFKALIIAPLDFITKYFKSFVLLLIVLVFFSAKESAPSAPPNLAKLYLNGAIFSTEDFDKEVDKILKTPSIKGVLLLIDSPGGAVSASVELSEKIADLKQKMPVLAYARGVMASGSYYAGMQASEVYASKASLIGSIGVIFSGANVENLLNKVGVATQGVHAGEYKEIGTFTRAWKPNEKDFLQNLVNEQYQMFVNDVAKARKLDAKDYKDFAEGKVFSAQKALKLKLIDKISTIKQAQDRLMELSKVKKAYWLEKSPMERFIEKATQSATNIITQAFGYQLLMR", "values": [{"measurement": "protein production", "result": "failed"}]}
{"sequence": "MIPLHRLCRALALLMGFGPTLSALAASAPEGLPLLGTGEGLEVRGCETLVLRGGQVVRLAEIIGPEAEGAARAQAALGALVVGHSLRLYGESPLADRYGRLHAHGVTEEGRWVQGALVEAGLARVVIREGESALSGALLALEERARRAGRGLWPPASAASPPPGALAATGDGFQVVEGRIVSAARAGRRIYLNFGADWRSDFTVSLSEAMLARLLATGRDPLAWAGRRVRVRGWVTRRNGPLLDLPHPMALEGPLDGPPFLSPKENLDLEYPGN", "values": [{"measurement": "protein production", "result": "failed"}]}
{"sequence": "EIHHRKPHGPEAALENVDAKIAKLMGEGYAFEEVKRALEIAQNNVEVARSILREFAFPPPVSPRLNL", "values": [{"measurement": "protein production", "result": "failed"}]}
{"sequence": "MGHHHHHHSHHTTEAKNDLRVGGRFVSKMEAKDGSFGFDFGGTYNKVRLYEFISYIMDDDRSVEITFKPEKDKTYIVESFEAEKSNPIDLQQKGWQAILDNFKKYVEENKLRGREK", "values": [{"measurement": "protein production", "result": "failed"}]}
{"sequence": "STQVSQATSQPINFQVQKDGSSEKSHMDDYMQHPGKVIKQNNKYYFQTVLNNASFWKEYKFYNANNQELATTVVNDNKKADTRTINVAVEPGYKSLTTKVHIVVPQINYNHRYTTHLEFEKAIPTLADAAK", "values": [{"measurement": "protein production", "result": "not failed"}]}
{"sequence": "MYRDIATKLVAAIQDGIFTVKLPTEAQLMERYQASRNTIRKAIDLVYQQGLLRRVQGSGYYITNIQLQHKTVVNLSARSLFNSHVHPRTLTSKILTFDTIHGDSALSRKLNIPVDEELYRIIRLRYWHDQLYCLEKAYYLRSVVPYLSTEAVNTSIWDFINEAYGIGIANSDDYLSLTNLNKEEAELMNLAQGATHLALDSCNYYKNNGLLDFSHTIFVYPDLALYFHTTNLANN", "values": [{"measurement": "protein production", "result": "failed"}]}
{"sequence": "SRGPEPGPQPTMEGDVLDTLEALGYKGPLLEEQALTKAAEGGLSSPEFSELCIWLGSQIKSLCNLEESITSAGRDDLESFQLEISGFLKEMACPYSVLISGDIKDRLKKKEDCLKLLLFLSTELQASQILQNKKHKNSQLDKNSEVYQEVQAMFDTLGIPKSTTSDIPHMLNQVESKVKDILSKVQKNHVGKPLLKMDLNSEQAEQLERINDALSCEYECRRRMLMKRLDVTVQSFGWSDRAKVKTDDIARIYQPKRYALSPKTTITMAHLLAAREDLSKIIRTSSGTSREKTACAINKVGVSFSTVENELMISYLMFLQILVYFSFMSW", "values": [{"measurement": "protein production", "result": "not failed"}]}
{"sequence": "MTMDNFSIRPMKRSELDVVIDWAAIEGWNPGIYDAECFYQADQCGFFVGELNNELVASISAVAYSQHFAVIGFYIVKEQFRGRGFGMKMWRTAMAYLGSERNISLDGVIAQQENYKKSGFQIAYRHIRYQV", "values": [{"measurement": "protein production", "result": "failed"}]}
{"sequence": "VKMSDKWIEIEEILSGLIGDLTIAVTVLKDYEGKAFLREPQHQTKRQCIWRLCVYSIVINCRKYVELNQKYGKEFQALIPGHNHIRGVYNNEINKNTAIKKLRNHCVAHVSDKSKYLKPAEVQEEIIKMFDGNFADEFLDWICPDNISTTDKSESLVGVIELLRDAVSAKL", "values": [{"measurement": "protein production", "result": "not failed"}]}
{"sequence": "MGTPAERWERARMFFDAKDYAAAARVLDGLVAQVPEQTGPRLLLARSYYHSAQLRRAEAELRVVVERDPVEHYARLMLGRTLERQGRQEEADAQLRIASALAGLEHHHHHH", "values": [{"measurement": "protein production", "result": "failed"}]}
{"sequence": "MRLGPAATSPSSGPRILPPAAHGDPRTAALPRATHLQIHDRRALSGLRDHPHLESVHLKGDFTLADLKALPTTLRHLDLSECTGSAKSFRAIAYLAGLPLESLNVAGAEIGDGGARLLAANPSLKSLNAASGGISASGARMLAESPTLESLDLTQNAIGDAGAQALAGSRSLRHLAVRNGLVTDLGTRALALNPALVSLDLGNLVTETGNQVEQDGYDKTANNITAQGAWALAQNRSLKSLSVQGNDLCGDDGVRALARNRTLTSLNVAFTNMTSASAKALADNPVLTSLSVRWNYGLDDAGAMELAMSRSLTSLDARDTGMSARGALALAANARISVWHDHANPVRAPLGEPPLSGLAGDPGQASRTAPGGAIWSSAAQARHVSAEAPANSAMTASTREGFALIDPFFNRVARESGLNVQAPQEMPWTRLRPSASEANHGNAGAHGASAEGLASSRMAASIREGLGLIDQYVDRMGREYGLPVRAPAAQPDSAAPEATQPTLPADVWQTIAAQADPRVRRTLSTVSKPLRAAALAATKHLTVWDKAAFSRLRNYPALESLSFHGPLSLADLRALPPSVRHLDLSGCTGSAVSEAGLAYLARLPLASLDLSDTGIGNRGAQALAASASLTSLNLSGNGIGTAGAEALGRNTVLTALDISANPIRNAGAQALAGSRSLTSLELRDTGIEDGGIEALAANTVLRSLDISGNDLSDQSAAALAANRTLTSLKANGCGLTNDMAQQLARIRSLRTLEVGSNSIGDAGVLTIARNASLRSLNLSRNPITPQGLYPLALSRTLKSLDVSRIGCGDRGALLLSGNRALTSLKLGFNRVSSEGARRLAANRTLVSLDLRGNTIDVAAARALANAEPLASLNVSDCRLDDAVACALAESRTLTSLDVSWNRLSHRAARALANNPVLASLYISHNDIGPEGAQALADSASLTFLDARANRIGEAGARLLEANTRMRGTPQNPHFLAQDVPE", "values": [{"measurement": "protein production", "result": "failed"}]}
{"sequence": "MTSAAMATAYFDKGNQCAARCDWLGAIEAFDHCLSLNPRDWQALANRGNAKVQREDLSGALEDYLAAAALNPSSCNIKSNLAVLLKELGELDLAAALLEEVLAAEPAHVDAWSNLGIVRQHQRRYQDAIACQQNALAIAGPSVARYSNLGNAYSCALMLDAAIEVQRKGLELAPDDANLQFNQSITLLTAGRYAEAWPLYEARWRSVLRPRLTQKRWQGEALGERTLLLWSEQGLGDSLQMVRLLSCLRRAHPQARLLLACPVSFHRLFAQFDGVSLLPADALPEHDCQLPLMSLPWLLGITLDNLPTEPYLRVPGGMVPPLPAASRRRVGVVWESGLWGVGVADLGRQHKSIPAGLFAEICRVPGIEFIALQPGGVPAELSDWVRACPISDFADTAALAAQMDLVICVDTAILHLAGAMGRPVWALLRAESAPFFLADAETAPWYPSVKLWRQPAPGAWEPMLKQIAEALAGRQTF", "values": [{"measurement": "protein production", "result": "failed"}]}
{"sequence": "GSSGSSGMSNTTWGLQRDITPRLGARLVQEGNQLHYLADRASITGKFSDAECPKLDVVFPHFISQIESMLTTGELNPRHAQCVTLYHNGFTCEADTLGSCGYVYIAVYPTQR", "values": [{"measurement": "protein production", "result": "not failed"}]}
{"sequence": "MQKNLDSLLENLRAEIDALDNELSDLLDKRLEIALKIALIKQESPIYCPKREQEILKRLSQRDFKHLNGEILTGFYTEVFKISRKFQENALKELKK", "values": [{"measurement": "protein production", "result": "failed"}]}
{"sequence": "MTMPRLASSRWWYIMPIVFVTYSLAYLDRANYGFAAASGMADDLRITPGLSSLLGALFFLGYFFFQVPGAIYAEKRSVKKLIFVSLILWGGLATLTGMVANVYLLIGIRFLLGVVEAAVMPAMLVYLCHWFTRAERSRANTFLILGNPVTILWMSVVSGYLVEHFSWRWMFIIEGLPAVIWAFIWWRLVDDRPRQAAWLSGSEKRDLEDALAAEQQGIKPVKNYREAFRSPKVIVLSLQYFCWSIGVYGFVLWLPSILKHGANIDIIEAGWLSALPYLAAVIAMLGVSWASDRLQKRKRFVWPPLLIASIAFYGSYALGSEHFWLSYALLVLAGACMYAPYGPFFAIVPEVLPANVAGGAMALINSMGALGSFSGSWLVGYLNGITGGPGASYLFMSGALLLSVLLTVFLNPHADKREPDAARAHASRRAAPAHP", "values": [{"measurement": "protein production", "result": "failed"}]}
